Data from US20160272683A1 (Novo Nordisk, published 2016).
Numbered stars: 1 amine (or outer) side, 2 acyl side, 3 side chain; on linkers, the order of the positions; unused ones are H or OH. * marks the point of attachment. C20 diacid = O=C(O)CCCCCCCCCCCCCCCCCCC(=O)*; γGlu = O=C(O)[C@H](CCC(=O)[*:2])N[*:1]

T1: human amylin 3(a) receptor (human calcitonin receptor co-expressed with RAMP-3) on BHK570/CRE-luc cells (human, UniProt P30988 25-474; O60896 24-148)
T1 sequence (looked up) 1: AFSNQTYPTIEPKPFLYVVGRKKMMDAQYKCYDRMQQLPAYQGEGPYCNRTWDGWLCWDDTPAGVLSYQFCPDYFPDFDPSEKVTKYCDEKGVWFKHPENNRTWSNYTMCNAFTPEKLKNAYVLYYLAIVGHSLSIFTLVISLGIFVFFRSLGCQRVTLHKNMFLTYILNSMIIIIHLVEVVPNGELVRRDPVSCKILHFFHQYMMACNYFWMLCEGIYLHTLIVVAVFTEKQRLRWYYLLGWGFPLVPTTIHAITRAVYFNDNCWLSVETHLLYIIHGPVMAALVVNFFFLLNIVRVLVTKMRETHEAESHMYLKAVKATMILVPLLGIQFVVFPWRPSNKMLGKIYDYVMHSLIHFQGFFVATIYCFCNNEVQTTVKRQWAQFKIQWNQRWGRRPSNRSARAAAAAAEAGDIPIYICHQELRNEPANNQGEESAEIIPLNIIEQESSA
T1 sequence (looked up) 2: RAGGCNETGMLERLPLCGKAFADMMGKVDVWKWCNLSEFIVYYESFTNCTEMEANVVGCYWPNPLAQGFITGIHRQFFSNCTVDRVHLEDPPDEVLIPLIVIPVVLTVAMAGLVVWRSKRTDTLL

T2: human calcitonin receptor on BHK570/CRE-luc cells (human, UniProt P30988 25-474)
T2 sequence (looked up): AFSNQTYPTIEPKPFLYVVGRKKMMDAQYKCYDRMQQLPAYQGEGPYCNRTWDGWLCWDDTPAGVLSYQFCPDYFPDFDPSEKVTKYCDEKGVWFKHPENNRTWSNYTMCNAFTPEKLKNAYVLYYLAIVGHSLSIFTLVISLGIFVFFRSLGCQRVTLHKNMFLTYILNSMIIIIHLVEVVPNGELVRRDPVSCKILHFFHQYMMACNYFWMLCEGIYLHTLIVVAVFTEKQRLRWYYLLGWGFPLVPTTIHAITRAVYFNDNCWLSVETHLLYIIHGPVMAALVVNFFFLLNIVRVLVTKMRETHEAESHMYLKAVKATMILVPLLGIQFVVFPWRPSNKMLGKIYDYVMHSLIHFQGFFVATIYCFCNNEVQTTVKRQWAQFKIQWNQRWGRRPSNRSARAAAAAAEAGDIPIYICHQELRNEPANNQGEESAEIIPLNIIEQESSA

B1: [N-terminal(C20 diacid-gGlu), des1, 4Q, 9V, 15Q, 21Q, 23Y, 30S, 31Q, 32T, 33Y]mimylin (peptide)
peptide: {C20 diacid-γGlu}-ASQLSTAVLGRLSQELHELQTYPRTETGSQTY-NH2
SMILES: CC(C)C[C@H](NC(=O)[C@H](CCCNC(=N)N)NC(=O)CNC(=O)[C@H](CC(C)C)NC(=O)[C@@H](NC(=O)[C@H](C)NC(=O)[C@@H](NC(=O)[C@H](CO)NC(=O)[C@H](CC(C)C)NC(=O)[C@H](CCC(N)=O)NC(=O)[C@H](CO)NC(=O)[C@H](C)NC(=O)CC[C@H](NC(=O)CCCCCCCCCCCCCCCCCCC(=O)O)C(=O)O)[C@@H](C)O)C(C)C)C(=O)N[C@@H](CO)C(=O)N[C@@H](CCC(N)=O)C(=O)N[C@@H](CCC(=O)O)C(=O)N[C@@H](CC(C)C)C(=O)N[C@@H](Cc1c[nH]cn1)C(=O)N[C@@H](CCC(=O)O)C(=O)N[C@@H](CC(C)C)C(=O)N[C@@H](CCC(N)=O)C(=O)N[C@H](C(=O)N[C@@H](Cc1ccc(O)cc1)C(=O)N1CCC[C@H]1C(=O)N[C@@H](CCCNC(=N)N)C(=O)N[C@H](C(=O)N[C@@H](CCC(=O)O)C(=O)N[C@H](C(=O)NCC(=O)N[C@@H](CO)C(=O)N[C@@H](CCC(N)=O)C(=O)N[C@H](C(=O)N[C@@H](Cc1ccc(O)cc1)C(N)=O)[C@@H](C)O)[C@@H](C)O)[C@@H](C)O)[C@@H](C)O
B2: [N-terminal(C20 diacid-gGlu), des1, 4G, 9V, 15Q, 21Q, 23Y, 30S, 31G, 32T, 33Y]mimylin (peptide)
peptide: {C20 diacid-γGlu}-ASGLSTAVLGRLSQELHELQTYPRTETGSGTY-NH2
SMILES: CC(C)C[C@H](NC(=O)CNC(=O)[C@H](CO)NC(=O)[C@H](C)NC(=O)CC[C@H](NC(=O)CCCCCCCCCCCCCCCCCCC(=O)O)C(=O)O)C(=O)N[C@@H](CO)C(=O)N[C@H](C(=O)N[C@@H](C)C(=O)N[C@H](C(=O)N[C@@H](CC(C)C)C(=O)NCC(=O)N[C@@H](CCCNC(=N)N)C(=O)N[C@@H](CC(C)C)C(=O)N[C@@H](CO)C(=O)N[C@@H](CCC(N)=O)C(=O)N[C@@H](CCC(=O)O)C(=O)N[C@@H](CC(C)C)C(=O)N[C@@H](Cc1c[nH]cn1)C(=O)N[C@@H](CCC(=O)O)C(=O)N[C@@H](CC(C)C)C(=O)N[C@@H](CCC(N)=O)C(=O)N[C@H](C(=O)N[C@@H](Cc1ccc(O)cc1)C(=O)N1CCC[C@H]1C(=O)N[C@@H](CCCNC(=N)N)C(=O)N[C@H](C(=O)N[C@@H](CCC(=O)O)C(=O)N[C@H](C(=O)NCC(=O)N[C@@H](CO)C(=O)NCC(=O)N[C@H](C(=O)N[C@@H](Cc1ccc(O)cc1)C(N)=O)[C@@H](C)O)[C@@H](C)O)[C@@H](C)O)[C@@H](C)O)C(C)C)[C@@H](C)O
B3: [N-terminal(C20 diacid-gGlu), des1, 4G, 9V, 15Q, 21Q, 23Y, 30S, 31Q, 32T, 33Y]mimylin (peptide)
peptide: {C20 diacid-γGlu}-ASGLSTAVLGRLSQELHELQTYPRTETGSQTY-NH2
SMILES: CC(C)C[C@H](NC(=O)CNC(=O)[C@H](CO)NC(=O)[C@H](C)NC(=O)CC[C@H](NC(=O)CCCCCCCCCCCCCCCCCCC(=O)O)C(=O)O)C(=O)N[C@@H](CO)C(=O)N[C@H](C(=O)N[C@@H](C)C(=O)N[C@H](C(=O)N[C@@H](CC(C)C)C(=O)NCC(=O)N[C@@H](CCCNC(=N)N)C(=O)N[C@@H](CC(C)C)C(=O)N[C@@H](CO)C(=O)N[C@@H](CCC(N)=O)C(=O)N[C@@H](CCC(=O)O)C(=O)N[C@@H](CC(C)C)C(=O)N[C@@H](Cc1c[nH]cn1)C(=O)N[C@@H](CCC(=O)O)C(=O)N[C@@H](CC(C)C)C(=O)N[C@@H](CCC(N)=O)C(=O)N[C@H](C(=O)N[C@@H](Cc1ccc(O)cc1)C(=O)N1CCC[C@H]1C(=O)N[C@@H](CCCNC(=N)N)C(=O)N[C@H](C(=O)N[C@@H](CCC(=O)O)C(=O)N[C@H](C(=O)NCC(=O)N[C@@H](CO)C(=O)N[C@@H](CCC(N)=O)C(=O)N[C@H](C(=O)N[C@@H](Cc1ccc(O)cc1)C(N)=O)[C@@H](C)O)[C@@H](C)O)[C@@H](C)O)[C@@H](C)O)C(C)C)[C@@H](C)O
B4: [N-terminal(C20 diacid-gGlu), des1, 4G, 15Q, 21Q, 23Y, 25H, 30S, 31G, 32T, 33Y]mimylin (peptide)
peptide: {C20 diacid-γGlu}-ASGLSTAALGRLSQELHELQTYPHTETGSGTY-NH2
SMILES: CC(C)C[C@H](NC(=O)CNC(=O)[C@H](CO)NC(=O)[C@H](C)NC(=O)CC[C@H](NC(=O)CCCCCCCCCCCCCCCCCCC(=O)O)C(=O)O)C(=O)N[C@@H](CO)C(=O)N[C@H](C(=O)N[C@@H](C)C(=O)N[C@@H](C)C(=O)N[C@@H](CC(C)C)C(=O)NCC(=O)N[C@@H](CCCNC(=N)N)C(=O)N[C@@H](CC(C)C)C(=O)N[C@@H](CO)C(=O)N[C@@H](CCC(N)=O)C(=O)N[C@@H](CCC(=O)O)C(=O)N[C@@H](CC(C)C)C(=O)N[C@@H](Cc1c[nH]cn1)C(=O)N[C@@H](CCC(=O)O)C(=O)N[C@@H](CC(C)C)C(=O)N[C@@H](CCC(N)=O)C(=O)N[C@H](C(=O)N[C@@H](Cc1ccc(O)cc1)C(=O)N1CCC[C@H]1C(=O)N[C@@H](Cc1c[nH]cn1)C(=O)N[C@H](C(=O)N[C@@H](CCC(=O)O)C(=O)N[C@H](C(=O)NCC(=O)N[C@@H](CO)C(=O)NCC(=O)N[C@H](C(=O)N[C@@H](Cc1ccc(O)cc1)C(N)=O)[C@@H](C)O)[C@@H](C)O)[C@@H](C)O)[C@@H](C)O)[C@@H](C)O
B5: [N-terminal(C20 diacid-gGlu), des1, 9V, 15Q, 21Q, 23Y, 30S, 31G, 32T, 33Y]mimylin (peptide)
peptide: {C20 diacid-γGlu}-ASELSTAVLGRLSQELHELQTYPRTETGSGTY-NH2
SMILES: CC(C)C[C@H](NC(=O)[C@H](CCCNC(=N)N)NC(=O)CNC(=O)[C@H](CC(C)C)NC(=O)[C@@H](NC(=O)[C@H](C)NC(=O)[C@@H](NC(=O)[C@H](CO)NC(=O)[C@H](CC(C)C)NC(=O)[C@H](CCC(=O)O)NC(=O)[C@H](CO)NC(=O)[C@H](C)NC(=O)CC[C@H](NC(=O)CCCCCCCCCCCCCCCCCCC(=O)O)C(=O)O)[C@@H](C)O)C(C)C)C(=O)N[C@@H](CO)C(=O)N[C@@H](CCC(N)=O)C(=O)N[C@@H](CCC(=O)O)C(=O)N[C@@H](CC(C)C)C(=O)N[C@@H](Cc1c[nH]cn1)C(=O)N[C@@H](CCC(=O)O)C(=O)N[C@@H](CC(C)C)C(=O)N[C@@H](CCC(N)=O)C(=O)N[C@H](C(=O)N[C@@H](Cc1ccc(O)cc1)C(=O)N1CCC[C@H]1C(=O)N[C@@H](CCCNC(=N)N)C(=O)N[C@H](C(=O)N[C@@H](CCC(=O)O)C(=O)N[C@H](C(=O)NCC(=O)N[C@@H](CO)C(=O)NCC(=O)N[C@H](C(=O)N[C@@H](Cc1ccc(O)cc1)C(N)=O)[C@@H](C)O)[C@@H](C)O)[C@@H](C)O)[C@@H](C)O
B6: [N-terminal(C20 diacid-gGlu), 4Q, 9V, 15Q, 21Q, 23Y, 27G, 30S, 31G, 32T, 33Y]mimylin (peptide)
peptide: {C20 diacid-γGlu}-EASQLSTAVLGRLSQELHELQTYPRTGTGSGTY-NH2
SMILES: CC(C)C[C@H](NC(=O)[C@H](CCCNC(=N)N)NC(=O)CNC(=O)[C@H](CC(C)C)NC(=O)[C@@H](NC(=O)[C@H](C)NC(=O)[C@@H](NC(=O)[C@H](CO)NC(=O)[C@H](CC(C)C)NC(=O)[C@H](CCC(N)=O)NC(=O)[C@H](CO)NC(=O)[C@H](C)NC(=O)[C@H](CCC(=O)O)NC(=O)CC[C@H](NC(=O)CCCCCCCCCCCCCCCCCCC(=O)O)C(=O)O)[C@@H](C)O)C(C)C)C(=O)N[C@@H](CO)C(=O)N[C@@H](CCC(N)=O)C(=O)N[C@@H](CCC(=O)O)C(=O)N[C@@H](CC(C)C)C(=O)N[C@@H](Cc1c[nH]cn1)C(=O)N[C@@H](CCC(=O)O)C(=O)N[C@@H](CC(C)C)C(=O)N[C@@H](CCC(N)=O)C(=O)N[C@H](C(=O)N[C@@H](Cc1ccc(O)cc1)C(=O)N1CCC[C@H]1C(=O)N[C@@H](CCCNC(=N)N)C(=O)N[C@H](C(=O)NCC(=O)N[C@H](C(=O)NCC(=O)N[C@@H](CO)C(=O)NCC(=O)N[C@H](C(=O)N[C@@H](Cc1ccc(O)cc1)C(N)=O)[C@@H](C)O)[C@@H](C)O)[C@@H](C)O)[C@@H](C)O
B7: [N-terminal(C20 diacid-gGlu), des1, 4G, 15E, 21Q, 23Y, 30S, 31G, 32T, 33Y]mimylin (peptide)
peptide: {C20 diacid-γGlu}-ASGLSTAALGRLSEELHELQTYPRTETGSGTY-NH2
SMILES: CC(C)C[C@H](NC(=O)CNC(=O)[C@H](CO)NC(=O)[C@H](C)NC(=O)CC[C@H](NC(=O)CCCCCCCCCCCCCCCCCCC(=O)O)C(=O)O)C(=O)N[C@@H](CO)C(=O)N[C@H](C(=O)N[C@@H](C)C(=O)N[C@@H](C)C(=O)N[C@@H](CC(C)C)C(=O)NCC(=O)N[C@@H](CCCNC(=N)N)C(=O)N[C@@H](CC(C)C)C(=O)N[C@@H](CO)C(=O)N[C@@H](CCC(=O)O)C(=O)N[C@@H](CCC(=O)O)C(=O)N[C@@H](CC(C)C)C(=O)N[C@@H](Cc1c[nH]cn1)C(=O)N[C@@H](CCC(=O)O)C(=O)N[C@@H](CC(C)C)C(=O)N[C@@H](CCC(N)=O)C(=O)N[C@H](C(=O)N[C@@H](Cc1ccc(O)cc1)C(=O)N1CCC[C@H]1C(=O)N[C@@H](CCCNC(=N)N)C(=O)N[C@H](C(=O)N[C@@H](CCC(=O)O)C(=O)N[C@H](C(=O)NCC(=O)N[C@@H](CO)C(=O)NCC(=O)N[C@H](C(=O)N[C@@H](Cc1ccc(O)cc1)C(N)=O)[C@@H](C)O)[C@@H](C)O)[C@@H](C)O)[C@@H](C)O)[C@@H](C)O

Legend:
[1] = biological target: T1, human amylin 3(a) receptor (human …); assay: cell-based or functional assay
[2] = biological target: T2, human calcitonin receptor on …; assay: cell-based or functional assay

| Binder | hAmylin-R funct. EC50 (pM), tested with HSA [1] [pM] | hCTR funct. EC50 (pM), tested with HSA [2] [pM] |
| --- | --- | --- |
| B1 | 67 | 36 |
| B2 | 105 | 54 |
| B3 | 86 | 61 |
| B4 | 212 | 99 |
| B5 | 142 | 97 |
| B6 | 546 | 366 |
| B7 | 159 | 57 |
